T1: peptide 2 (synthetic peptide corresponding to the epitope for mAb 12H06) (human)
T1 peptide: RPYYQGLIDKYC

T2: rat myo-inositol oxygenase (Miox) (rat, UniProt Q9QXN4 1-285)
T2 construct: also called rat Miox; rat MIOX
T2 sequence (looked up): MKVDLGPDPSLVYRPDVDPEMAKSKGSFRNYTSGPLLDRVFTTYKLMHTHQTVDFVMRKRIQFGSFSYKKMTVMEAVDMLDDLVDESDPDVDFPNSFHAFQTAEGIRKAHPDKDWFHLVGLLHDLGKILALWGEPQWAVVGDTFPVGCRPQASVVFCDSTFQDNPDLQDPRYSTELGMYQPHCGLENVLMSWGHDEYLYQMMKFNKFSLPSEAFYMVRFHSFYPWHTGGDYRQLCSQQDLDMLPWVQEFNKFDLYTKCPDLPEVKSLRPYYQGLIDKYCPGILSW

T3: peptide 1 (synthetic peptide corresponding to the epitope for mAb 01D10) (human)
T3 peptide: PSLVYRPDVDPEV

T4: mouse myo-inositol oxygenase (Miox) (mouse, UniProt Q9QXN5 1-285)
T4 construct: also called mouse Miox; mouse MIOX
T4 sequence (looked up): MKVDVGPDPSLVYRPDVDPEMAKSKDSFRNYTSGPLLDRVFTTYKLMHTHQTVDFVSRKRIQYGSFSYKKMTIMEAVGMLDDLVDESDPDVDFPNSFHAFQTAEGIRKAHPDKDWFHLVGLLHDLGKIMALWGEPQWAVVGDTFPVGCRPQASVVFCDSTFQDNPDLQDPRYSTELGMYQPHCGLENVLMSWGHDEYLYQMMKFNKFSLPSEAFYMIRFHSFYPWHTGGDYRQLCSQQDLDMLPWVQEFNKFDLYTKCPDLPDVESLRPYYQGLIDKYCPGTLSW

B1: mouse monoclonal anti-MIOX antibody 01D10 (antibody, IgG2b, V domains shown)
VH: QVQLQQSGPELVKPGASVKISCKASGYSFTSYYIHWVKQRPGQGLEWIGWIYPGSGNSKYNEKFKGKATLTADTSSSTAYMQLSSLTSEDSAVYYCARDGSTYNWNFDVWGTGTTVTVSS
VL: DIQMTQSPASLSASVGETVTITCRTSGNIHNYLAWYQQKQGKSPQLLVYNAKTLADGVPSRFSGSGSGTQYSLKINSLQPEDFGSYYCQHFWSIPFTFGSGTKLEIKR
notes: they run a few residues into the constant regions; Biotinylated when used as capping antibody in the sandwich immunoassay; also called mAb 01D10
B2: mouse monoclonal anti-MIOX antibody 12H06 (antibody, IgG2b, V domains shown)
VH: QVQLQQPGAELVRPGTSVKLSCKASGYTFTSYWMHWVKQRPGQGLEWIGLIDPSDSYTNYNQKFKGKATLTVDTSSSTASMQLSSLTSEDSAVYYCVRTYYHSSYFFAYWGQGTLVTVSS
VL: DIVVTQSPASFAVSLGQRATISCRASKSVSTSGYSYINWYQQKPGQPPKLLIYLASNLESGVPARFSGSGSGTDFTLNIHPVEEEDAATYYCQHSRELPLTFGAGTRLELK
notes: the VH entry runs a few residues into CH1; also called mAb 12H06

Key:
[1] = target: T1, peptide 2 (synthetic peptide …); experiment: peptide preincubation (one hour), then immunoblot
Description: (§1) FIG. 4A and FIG. 4B depict images of immunoblots showing confirmation of specific antibody epitopes by blocking mAb binding to endogenous MIOX. (FIG. 4A) The peptides corresponding to the epitopes for mAb 01D10 (peptide 1) and mAb 12H06 (peptide 2) were synthesized. mAb 01D10 was pre-incubated for one hour with buffer alone, 100 μg/ml peptide 1, or 100 μg/ml peptide 2. (FIG. 4B) Western inhibition of mAb 12H06 using either peptide 1 or peptide 2.
(§2) The linear epitopes of the anti-MIOX antibodies were determined by use of spot-peptide membrane arrays containing the full length amino acid sequence of MIOX. The two mouse monoclonal antibodies mapped to opposite ends of the MIOX sequence (FIG. 3B). The antibody designated 01D10 mapped to the N-terminal sequence of MIOX (FIG. 3C). The peptide spots were decoded to reveal the sequence P9-V21. The mouse monoclonal antibody designated 12H06 mapped to the C-terminal region of MIOX (FIG. 3C). The peptide spots were decoded to reveal the epitope sequence R268-C279. […] The peptide epitope recognized by the 12H06 mouse monoclonal antibody was 100% identical to the corresponding mouse and rat Miox peptide sequence. The peptide epitope recognized by the 01D10 mouse monoclonal antibody was 92% identical to the corresponding mouse and rat Miox peptide sequence. […]

[2] = target: T2, rat myo-inositol oxygenase (Miox); experiment: Western blot of rat kidney homogenate
Description: (§3) The cross-species immunoreactivity of the anti-MIOX monoclonal antibodies was investigated (FIG. 3D,E). Human, mouse, and rat kidney homogenates were separately probed with both monoclonal anti-MIOX antibodies.
(§4) Normal human kidney homogenate was purchased from G-Biosciences (NLH-04, G-Biosciences). Mouse and rat kidney homogenate was purchased from G-Biosciences, St. Louis, Mo. Western blotting was performed as previously described (Laterza O F, et al. Clin Chem 2006; 52:1713-1721). Blots were probed with 0.004 mg/mL of the rabbit polyclonal anti-MIOX antibody R9544 or 0.004 mg/mL of either the 01D10 or 12H06 mouse anti-MIOX monoclonal antibody. Where indicated, both monoclonal antibodies were used simultaneously, each at the above concentrations.

[3] = target: T3, peptide 1 (synthetic peptide …); experiment: peptide preincubation, then immunoblot
Description: as §1, §2

[4] = target: T4, mouse myo-inositol oxygenase (Miox); experiment: Western blot of mouse kidney homogenate
Description: as §3, §4

Binder | binding result [1] | binding result [2] | binding result [3] | binding result [4]
B1 | no binding (tested: 100 µg/ml) |  |  | 
B2 |  | binds | no binding (tested: 100 µg/ml) | binds

From US20160216264A1 (WASHINGTON UNIVERSITY, published 2016)
